The results in this text go back to paper PMC3439536.

For this assay, the target named is Human CR2 SCR1-4-BCCP, site-specifically biotinylated (human) (UniProt P20023). Description: SPR. In general terms: Surface plasmon resonance follows binding to a sensor surface in real time, without labels.
Sequence of Human CR2 SCR1-4-BCCP, site-specifically biotinylated (human) (P20023 21-273): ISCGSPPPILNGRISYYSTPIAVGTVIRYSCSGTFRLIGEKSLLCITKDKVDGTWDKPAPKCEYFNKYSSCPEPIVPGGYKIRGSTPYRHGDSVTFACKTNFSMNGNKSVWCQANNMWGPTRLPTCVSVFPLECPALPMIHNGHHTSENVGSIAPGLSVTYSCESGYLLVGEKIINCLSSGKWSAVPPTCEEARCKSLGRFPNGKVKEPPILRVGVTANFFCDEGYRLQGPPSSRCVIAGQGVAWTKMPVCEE

Sequence of 70 kDa fragment of the Epstein-Barr virus gp350/220 coat protein (P03200 whole entry, the tested form may be a part): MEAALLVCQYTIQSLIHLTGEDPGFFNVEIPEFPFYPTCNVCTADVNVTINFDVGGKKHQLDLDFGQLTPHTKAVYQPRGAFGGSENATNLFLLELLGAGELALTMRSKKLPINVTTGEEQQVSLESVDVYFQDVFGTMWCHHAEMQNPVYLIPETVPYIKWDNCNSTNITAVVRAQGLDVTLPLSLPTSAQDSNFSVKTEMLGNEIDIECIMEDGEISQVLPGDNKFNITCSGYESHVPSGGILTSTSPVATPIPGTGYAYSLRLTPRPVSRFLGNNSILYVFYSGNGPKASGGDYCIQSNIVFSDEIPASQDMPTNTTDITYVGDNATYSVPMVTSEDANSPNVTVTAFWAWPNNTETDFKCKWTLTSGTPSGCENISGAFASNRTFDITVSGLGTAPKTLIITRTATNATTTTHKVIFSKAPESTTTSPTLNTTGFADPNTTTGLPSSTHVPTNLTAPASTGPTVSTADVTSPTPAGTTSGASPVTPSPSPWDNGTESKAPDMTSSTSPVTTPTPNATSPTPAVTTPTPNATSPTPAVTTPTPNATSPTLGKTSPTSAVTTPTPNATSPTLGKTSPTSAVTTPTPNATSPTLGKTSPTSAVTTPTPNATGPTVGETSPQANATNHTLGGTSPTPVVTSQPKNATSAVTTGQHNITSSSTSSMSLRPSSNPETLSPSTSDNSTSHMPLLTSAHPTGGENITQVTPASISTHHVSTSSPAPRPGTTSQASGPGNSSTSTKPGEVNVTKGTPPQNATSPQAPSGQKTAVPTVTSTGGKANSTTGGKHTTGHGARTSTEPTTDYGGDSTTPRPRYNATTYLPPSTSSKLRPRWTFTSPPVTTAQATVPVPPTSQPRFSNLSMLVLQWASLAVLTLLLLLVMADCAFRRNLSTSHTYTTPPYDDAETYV

Turning to “70 kDa fragment of the Epstein-Barr virus gp350/220 coat protein (from UniProt P03200-1 1-907) (domain or fragment)”, the KD1 (higher affinity site, two-site model) worked out at 0.417 µM.
